The values below come from PMC2794166.

The data set concerns the target T1, mPOT1a_N (mouse, UniProt Q91WC1 1-300).
T1 sequence: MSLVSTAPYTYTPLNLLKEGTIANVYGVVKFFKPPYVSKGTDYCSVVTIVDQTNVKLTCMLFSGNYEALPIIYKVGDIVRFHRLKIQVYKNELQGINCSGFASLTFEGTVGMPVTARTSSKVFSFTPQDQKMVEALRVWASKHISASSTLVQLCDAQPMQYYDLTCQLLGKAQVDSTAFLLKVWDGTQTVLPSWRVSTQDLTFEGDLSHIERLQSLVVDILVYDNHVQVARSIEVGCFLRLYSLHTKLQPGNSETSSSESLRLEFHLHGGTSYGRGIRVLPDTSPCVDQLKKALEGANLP
Briefly: EMSA.

Turning to TTAGGGTTAGGG (ssDNA) [(TTAGGG)2], the binding result is “no binding”.
